The values that follow come from paper PMC11952669 (Research Square, 2025).

The term Kd denotes the constant that tells how readily two partners part at equilibrium. Read a high Kd as lower affinity.

In data set [1] the target is Biotinylated VsCoV-a7 RBD (residues 356–556) (bat MERSr-CoV VsCoV-a7 (from Vespertilio sinensis)). Briefly: BLI. A general note: In BLI a coated tip is dipped into the sample, and binding shifts an interference pattern.
Data set [2] concerns the molecule itself. Briefly: cryo-EM structure.

“E.fus ACE2 ectodomain (residues 1–747), dimeric (receptor)”: the Kd in data set [1] came out at 816 nM.

B1: R.nor ACE2 ectodomain (residues 1–741), dimeric (receptor)
chain: QSLIEEKAESFLNKFNQEAEDLSYQSSLASWNYNTNITEENAQKMNEAAAKWSAFYEEQSKIAQNFSLQEIQNATIKRQLKALQQSGSSALSPDKNKQLNTILNTMSTIYSTGKVCNSMNPQECFLLEPGLDEIMATSTDYNRRLWAWEGWRAEVGKQLRPLYEEYVVLKNEMARANNYEDYGDYWRGDYEAEGVEGYNYNRNQLIEDVENTFKEIKPLYEQLHAYVRTKLMEVYPSYISPTGCLPAHLLGDMWGRFWTNLYPLTTPFLQKPNIDVTDAMVNQSWDAERIFKEAEKFFVSVGLPQMTPGFWTNSMLTEPGDDRKVVCHPTAWDLGHGDFRIKMCTKVTMDNFLTAHHEMGHIQYDMAYAKQPFLLRNGANEGFHEAVGEIMSLSAATPKHLKSIGLLPSNFQEDNETEINFLLKQALTIVGTLPFTYMLEKWRWMVFQDKIPREQWTKKWWEMKREIVGVVEPLPHDETYCDPASLFHVSNDYSFIRYYTRTIYQFQFQEALCQAAKHDGPLHKCDISNSTEAGQKLLNMLSLGNSGPWTLALENVVGSRNMDVKPLLNYFQPLFVWLKEQNRNSTVGWSTDWSPYADQSIKVRISLKSALGKNAYEWTDNEMYLFRSSVAYAMREYFSREKNQTVPFGEADVWVSDLKPRVSFNFFVTSPKNVSDIIPRSEVEEAIRMSRGRINDIFGLNDNSLEFLGIYPTLKPPYEPPVTI
notes: also called soluble dimeric R.nor ACE2; R.nor (Rodent) ACE2; source: Expi293F, purified (Ni Sepharose, Superose-6 gel filtration)
As for B1, the binding result in data set [2] is given as “binds”.
